Source: patent US10421803 (dated 2019)

Molecular target: HIV-1 YU2 gp120 (HIV-1, UniProt P35961)
Assay: SPR, bivalent

Chain of HIV-1 YU2 gp120 (P35961 32-671): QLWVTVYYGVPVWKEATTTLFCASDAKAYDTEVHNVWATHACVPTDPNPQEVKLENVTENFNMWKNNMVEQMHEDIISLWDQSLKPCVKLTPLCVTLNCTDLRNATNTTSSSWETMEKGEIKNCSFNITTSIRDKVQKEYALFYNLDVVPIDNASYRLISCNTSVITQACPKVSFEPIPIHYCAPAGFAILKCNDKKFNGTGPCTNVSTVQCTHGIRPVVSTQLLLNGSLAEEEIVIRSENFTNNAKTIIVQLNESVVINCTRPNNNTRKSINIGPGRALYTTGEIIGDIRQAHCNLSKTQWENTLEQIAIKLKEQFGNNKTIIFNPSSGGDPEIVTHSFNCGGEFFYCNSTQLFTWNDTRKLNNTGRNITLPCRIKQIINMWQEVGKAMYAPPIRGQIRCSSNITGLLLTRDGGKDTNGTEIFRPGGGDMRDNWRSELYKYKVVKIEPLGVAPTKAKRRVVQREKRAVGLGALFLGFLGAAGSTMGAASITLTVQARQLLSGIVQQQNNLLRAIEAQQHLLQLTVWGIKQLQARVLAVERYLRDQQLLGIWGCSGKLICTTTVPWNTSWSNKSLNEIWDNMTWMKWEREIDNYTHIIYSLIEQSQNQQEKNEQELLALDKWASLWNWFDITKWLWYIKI

B1: 8ANC195 IgG (antibody, V domains shown)
VH: QIHLVQSGTEVKKPGSSVTVSCKAYGVNTFGLYAVNWVRQAPGQSLEYIGQIWRWKSSASHHFRGRVLISAVDLTGSSPPISSLEIKNLTSDDTAVYFCTTTSTYDKWSGLHHDGVMAFSSWGQGTLISVSA
VL: DIQMTQSPSTLSASIGDTVRISCRASQSITGNWVAWYQQRPGKAPRLLIYRGAALLGGVPSRFSGSAAGTDFTLTIGNLQAEDFGTFYCQQYDTYPGTFGQGTKVEV
- Kd: 82 nM
